The data set “SEC” deals with the molecule itself. Kind of data set: SEC.
The data set “SAXS” concerns the molecule itself. The data set can be described thus: SAXS.
For data set [1], the target named is T1, GST-TyrRS fusion protein, wild type, full length (human, UniProt P54577 1-528).
T1 sequence: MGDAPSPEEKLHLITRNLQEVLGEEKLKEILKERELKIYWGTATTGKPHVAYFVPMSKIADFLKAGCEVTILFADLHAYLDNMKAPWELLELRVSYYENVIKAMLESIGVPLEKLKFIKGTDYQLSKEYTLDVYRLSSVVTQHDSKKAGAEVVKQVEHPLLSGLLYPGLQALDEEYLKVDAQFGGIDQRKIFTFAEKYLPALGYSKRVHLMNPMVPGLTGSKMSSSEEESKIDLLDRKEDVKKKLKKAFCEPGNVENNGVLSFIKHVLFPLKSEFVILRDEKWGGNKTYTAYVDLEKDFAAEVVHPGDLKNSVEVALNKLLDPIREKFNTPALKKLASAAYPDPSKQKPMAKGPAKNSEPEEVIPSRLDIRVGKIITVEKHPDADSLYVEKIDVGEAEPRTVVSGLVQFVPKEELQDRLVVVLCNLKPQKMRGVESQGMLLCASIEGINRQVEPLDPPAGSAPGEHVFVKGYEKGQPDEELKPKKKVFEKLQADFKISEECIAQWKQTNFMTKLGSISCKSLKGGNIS
Kind of data set: BLI. (BLI is a label-free optical method that tracks binding on a fibre tip over time.)

Data set [2] addresses T2, GST-TyrRS Δ153-156 fusion protein, full length (human, UniProt P54577 1-528, Δ153-156VKQV).
T2 sequence: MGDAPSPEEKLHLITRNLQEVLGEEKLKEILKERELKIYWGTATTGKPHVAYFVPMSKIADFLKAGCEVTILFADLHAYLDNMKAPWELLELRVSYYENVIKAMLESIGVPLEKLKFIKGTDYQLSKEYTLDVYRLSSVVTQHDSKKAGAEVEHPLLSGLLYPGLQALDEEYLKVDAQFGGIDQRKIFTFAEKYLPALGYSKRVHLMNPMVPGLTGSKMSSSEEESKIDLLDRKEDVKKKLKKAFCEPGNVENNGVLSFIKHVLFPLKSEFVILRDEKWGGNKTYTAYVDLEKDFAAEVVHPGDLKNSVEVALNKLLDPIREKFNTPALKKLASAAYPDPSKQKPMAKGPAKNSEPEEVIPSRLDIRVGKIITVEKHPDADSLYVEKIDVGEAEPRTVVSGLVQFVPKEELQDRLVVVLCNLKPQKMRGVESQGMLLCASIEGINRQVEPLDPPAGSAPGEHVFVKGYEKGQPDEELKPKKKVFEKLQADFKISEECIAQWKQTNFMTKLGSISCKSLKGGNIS
Kind of data set: BLI.

Data set [3] addresses T3, GST-TyrRS E196K fusion protein, full length (human, UniProt P54577 1-528, E196K).
T3 sequence: T1 sequence with E196K
The data set can be described thus: BLI.

Substitutions are numbered along the chain they refer to. Numbers in names are those of the source.

B1: full-length tyrosyl-tRNA synthetase Δ153-156 deletion mutant (TyrRS^Δ153-156), C-terminal hexahistidine tag (enzyme)
chain: T2 sequence
As usually defined, the Kd is the free concentration of one partner at which half of the binding sites on the other are occupied at equilibrium, for simple one-to-one binding. As to B1, in “SEC”, the Kd was ~200 nM.

B2: full-length tyrosyl-tRNA synthetase G41R mutant (TyrRS^G41R), C-terminal hexahistidine tag (enzyme)
chain: T1 sequence with G41R
The stoichiometry N is the number of molecules, sites or subunits per partner or assembly. As to B2, in “SEC”, the Kd is ~200 nM. For the same molecule, the “stoichiometry N” value in “SAXS” was 2.

B3: full-length tyrosyl-tRNA synthetase, wild type (TyrRS^WT), C-terminal hexahistidine tag (enzyme)
chain: T1 sequence
As to B3, the Kd in the data set “SEC” was ~200 nM.

B4: full-length tyrosyl-tRNA synthetase E196K mutant (TyrRS^E196K), C-terminal hexahistidine tag (enzyme)
chain: T1 sequence with E196K
As for B4, in “SAXS”, the “stoichiometry N” value was determined as 2.

B5: RBCC (aa 65–378 of TRIM28) (domain or fragment)
chain: CGVCRERLRPEREPRLLPCLHSACSACLGPAAPAAANSSGDGGAAGDGTVVDCPVCKQQCFSKDIVENYFMRDSGSKAATDAQDANQCCTSCEDNAPATSYCVECSEPLCETCVEAHQRVKYTKDHTVRSTGPAKSRDGERTVYCNVHKHEPLVLFCESCDTLTCRDCQLNAHKDHQYQFLEDAVRNQRKLLASLVKRLGDKHATLQKSTKEVRSSIRQVSDVQKRVQVDVKMAILQIMKELNKRGRVLVNDAQKVTEGQQERLERQHWTMTKIQKHQEHILRFASWALESDNNTALLLSKKLIYFQLHRALKM
As to B5, the binding result in data set [1] is on record as “binds”. Further, the “fold increase in binding affinity against TyrRS^WT” value in data set [2] and in data set [3] was 5 fold throughout.

(Values after PMC5737801 (Nucleic Acids Research, 2017).)
